# Measurements from paper PMC4833381.
# Experiments:
# [1] = biological target: HCMV UL130 of HCMV BADrUL131 (extracellular virions) (human cytomegalovirus, BADrUL131) (UniProt P16772); experiment: co-IP
# [2] = biological target: HCMV gB of HCMV BADrUL131 (infected cells and extracellular virions) (human cytomegalovirus, BADrUL131) (UniProt P06473); experiment: co-IP
# [3] = biological target: HCMV gL of HCMV BADrUL131 (extracellular virions) (human cytomegalovirus, BADrUL131) (UniProt P16832); experiment: co-IP
# [4] = biological target: HCMV gB of HCMV BADrUL131 (infected cells and extracellular virions) (human cytomegalovirus, BADrUL131) (UniProt P06473); experiment: co-IP; IP-western, repeat with an additional BADrUL131 virion preparation solubilized in 1% NP-40; IP with anti-gB MAb 15H7; gH signal read beside a linear range of gH/gL lysate (Image Studio, Licor)
# [5] = biological target: HCMV gB of clinical strain TR (extracellular virions) (human cytomegalovirus, strain TR); experiment: co-IP; IP-western: extracellular virions of HCMV clinical strain TR solubilized in 1% NP-40; IP with anti-gB MAb 15H7; gH signal read beside a linear range of gH/gL lysate (Image Studio, Licor)
# [6] = biological target: HCMV gB with a C-terminal FLAG epitope tag (Ad vector) (human cytomegalovirus) (UniProt P06473); experiment: co-IP; IP-western: ARPE-19 cells transduced with Ad vectors, 1% NP-40 lysates; IP with anti-gH MAb 14-4b, anti-gB MAbs 9C1, 13H10, 15H7 or anti-FLAG MAb; protein-A agarose; blots for gB, gH, HSV-1 gH or HSV-1 gD; percent against 5% input (ImageJ)
# [7] = biological target: HCMV glycoprotein gB, lab strain AD169 (Ad vector) (human cytomegalovirus, strain AD169) (UniProt P06473); experiment: as above
# [8] = biological target: HCMV glycoprotein gH, strain TR (Ad vector) (human cytomegalovirus, strain TR); experiment: co-IP; IP-western: MRC-5 fibroblasts transduced with Ad vectors, 1% NP-40 lysates; IP with anti-gH MAb 14-4b; blot with anti-gB rabbit serum; percent against 5% input
# [9] = biological target: HCMV glycoprotein gH, strain TR (Ad vector) (human cytomegalovirus, strain TR); experiment: co-IP; pulse-chase: Ad-transduced ARPE-19 cells labeled 15 min with 35S-methionine/cysteine, chased 60, 120 or 240 min; 1% NP-40 extracts; IP with anti-gH MAb 14-4b; SDS-PAGE under reducing conditions
# [10] = biological target: HCMV glycoprotein gH, strain TR (Ad vector) (human cytomegalovirus, strain TR); experiment: co-IP; IP-western: ARPE-19 cells transduced with Ad vectors, 1% NP-40 lysates; IP with anti-gH MAb 14-4b, anti-gB MAbs 9C1, 13H10, 15H7 or anti-FLAG MAb; protein-A agarose; blots for gB, gH, HSV-1 gH or HSV-1 gD; percent against 5% input (ImageJ)
# UniProt P16832, sequence (P16832 31-278): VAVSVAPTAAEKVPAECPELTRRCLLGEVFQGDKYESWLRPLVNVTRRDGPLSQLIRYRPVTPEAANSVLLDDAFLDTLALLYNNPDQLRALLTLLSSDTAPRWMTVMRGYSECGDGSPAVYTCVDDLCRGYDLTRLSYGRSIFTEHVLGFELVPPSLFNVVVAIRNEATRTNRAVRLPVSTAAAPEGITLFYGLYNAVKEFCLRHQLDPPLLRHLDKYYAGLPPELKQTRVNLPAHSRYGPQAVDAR
substance,measurement,setting,value
HCMV gH of HCMV BADrUL131 (infected cells and extracellular virions) (from UniProt P12824 24-743) (natural protein),percent of the total gH/gL precipitated with anti-UL130 serum,[1],24%
same,percent of the total gH/gL co-IP'd with gB,[2],50%
same,percent of the total gH IP'd with gL antibodies,[3],8%
same,percent of the total gH co-IP'd with gB,[4],21%
HCMV gB of HCMV BADrUL131 (infected cells and extracellular virions) (from UniProt P06473 32-906) (natural protein),percent of the total gB precipitated with anti-UL130 serum,[1],1%
HCMV gH of clinical strain TR (extracellular virions) (natural protein),percent of the total gH co-IP'd with gB,[5],16%
HCMV UL130 of HCMV BADrUL131 (extracellular virions) (from UniProt P16772) (natural protein),percent of the total co-IP'd with gB,[2],2.5%
"HCMV glycoprotein gH, strain TR (Ad vector) (natural protein)",percent of gH/gL co-IP'd with gB MAbs or anti-FLAG MAbs,[6],1 to 6%
same,percent of gH/gL co-IP'd with gB MAbs or anti-FLAG MAbs,[7],1 to 6%
HCMV gO of HCMV BADrUL131 (extracellular virions) (from UniProt P16750 31-466) (natural protein),percent of the total co-IP'd with gB,[2],1%
"HCMV glycoprotein gB, lab strain AD169 (Ad vector) (from UniProt P06473 32-906) (natural protein)",percent of the total gB co-IP'd with gH/gL,[8],13%
same,"gB complexed with gH/gL, percent of the gH/gL precipitated (pulse sample)",[9],38%
same,percent of the total gB co-IP'd with gH/gL,[10],16.5%
